Assays:
Assay in all cases: flow
Settings in all cases: whole cells, 4C
[1] = system: unidentified cell-surface target of MCF7 cells (Homo sapiens)
[2] = system: unidentified cell-surface target of T-47D cells (Homo sapiens)
[3] = system: unidentified cell-surface target of MDA-MB-231 cells (Homo sapiens)

Sequence: GGCCCGGCTGGCATGTANTCATGCCTCCTGGNCTAAGGTTTCTAAAGGGCCCGCGTAGCG [08B-MCF7mh]
- Kd ([1]; n = Ds, ±0.1 (printed 01)): 2.5 nM

Sequence: CTCTAGTCNGTCGAACTGTNATGAGCGTGCTAGGGGG [14A-MCF7 (37DsDs)]
- Kd ([1]; n = Ds, ±0.1, Mg2+): 2.1 nM

Sequence: GGCGGTCNGTCGAACTGTNATGAGCGTGCCGCCCGCGTAGCG [14A-MCF7mh]
- Kd ([1]; n = Ds, ±0.2, printed 14A-MCF7rmh): 2.1 nM

Sequence: GCGGCGAAGATCACNACTAGGGGNCCTCGCCGC [03-T47D (DsDs)]
- Kd ([2]; n = Ds at 15 and 24, ±6.7): 91.6 nM

Sequence: CCCTCTTAAGTTTATAGNTGTCTTTTGGTNCCTAGGGCGTTTTAAAGGG [23-MB231b]
- Kd ([3]; n = Ds, ±5.6): 23.3 nM

Sequence: GCGGTCNGTCGAACTGTNATGAGCGTGCCGCCGCGTAGCG [14A-MCF7mh (40DsDs)]
- Kd ([1]; n = Ds, ±0.2): 2.2 nM

Sequence: GGCCCGGCTGGCATGTANTCATGCCTCCTGGNCTAAGGTTTCTAAAGGGCC [08B-MCF7 (51DsDs)]
- Kd ([1]; n = Ds at 18 and 32, ±0.3): 3.2 nM

Sequence: GGCGCCAGGGGTGTTTGTGCCGTGAGNTGTGGCGCCCGCGTAGCG [05-MB231GCmh]
- Kd ([3]; n = Ds, ±0.1): 1.6 nM

Sequence: CGGCGGTCNGTCGAACTGTNATGAGCGTGCCGCCGCGCGTAGCG [14A-MCF7mh (44DsDs)]
- Kd ([1]; n = Ds, ±0.2): 1.9 nM

Sequence: CGGTCNGTCGAACTGTNATGAGCGTGCCGCGCGTAGCG [14A-MCF7mh (38DsDs)]
- Kd ([1]; n = Ds, ±0.02): 2.6 nM

Sequence: GCGGCGAAGATCACNACTAGGGGNCCTCGCCGCCGCGTAGCG [03-T47Dmh]
- Kd ([2]; n = Ds, ±3.0): 39.3 nM

Sequence: CCGCGCAGCCTGGGNTCTCTTTTAGTCNAGTTCAATCGCGCGGCGCGTAGCG [07-MB231mh]
- Kd ([3]; n = Ds, ±0.3): 2 nM

Sequence: GGCCCGGCTGGCGAAGCCTCCTGGNCTAAGGTTTCTAAAGGGCCCGCGTAGCG [08B-MCF7mh2]
- Kd ([1]; n = Ds, ±0.1): 2.3 nM

Sequence: GGCGCCAGGGGTGTTTGTGCCGTGAGNTGTGGCGCC [05-MB231GC]
- Kd ([3]; n = Ds, ±0.2): 2.2 nM

Sequence: CCGCGCAGCCTGGGNTCTCTTTTAGTCNAGTTCAATCGCGCGG [07-MB231 (DsDs)]
- Kd ([3]; n = Ds at 15 and 28, ±0.5): 2.2 nM

Sequence: CCCTCTTAAGTTTATAGNTGTCTTTTGGTNCCTAGGGCGTTTTAAAGGGCGCGTAGCG [23-MB231bmh]
- Kd ([3]; n = Ds, ±0.9): 2.5 nM
